Laboratory results published in the Human Domainome abundance scans (Beltran et al. 2025).
± gives the uncertainty stated by the source.

B1: Ankyrin-2, residues 3571 to 3650; numbered along this chain, Q01484 (parent)
chain: ERLAYIADHLGFSWTELARELDFTEEQIHQIRIENPNSLQDQSHALLKYWLERDGKHATDTNLVECLTKINRMDIVHLME

Variants of: B1
Test: abundance fitness (aPCA) (normalised: wild type 0, dead -1); higher = more abundant; growth selection in yeast, the domain comes from the species named
Details: Homo sapiens

Variant	abundance fitness
ERLAYIADHLGFSWTELARELDFTEEQIHQIRIENPNSLQDQSHALLKYWLERDGKHATDTNLVQCLTKINRMDIVHLME [E65Q]	-0.017 ± 0.067
ERLAYIADHLGFSWTELARELDFTEEQIHQIRIENPNSLQDQSHALLKYWLERDGKHATDTNLVYCLTKINRMDIVHLME [E65Y]	0.097 ± 0.12
ERLAYIADHLGFSWTELARELDFTEEQIHQIRIENPNSLQDQSHALLKYWLERDGKHATDTNEVECLTKINRMDIVHLME [L63E]	-0.657 ± 0.12
ERLAYIADHLGFSWTELARELDFTEEQIHQIRIENPNSLQDQSHALLKYWLERDGKHATDTNCVECLTKINRMDIVHLME [L63C]	-0.044 ± 0.13
ERLAYIADHLGFSWTELARELDFTEEQIHQIRIENPNSLQDQSHALLKYWLERDGKHATDTNHVECLTKINRMDIVHLME [L63H]	-0.777 ± 0.22
ERLAYIADHLGFSWTELARELDFTEEQIHQIRIENPNSLQDQSHALLKYWLERDGKHATDTNGVECLTKINRMDIVHLME [L63G]	-0.624 ± 0.086
ERLAYIADHLGFSWTELARELDFTEEQIHQIRIENPNSLQDQSHALLKYWLERDGKHATDTNPVECLTKINRMDIVHLME [L63P]	-0.651 ± 0.071
ERLAYIADHLGFSWTELARELDFTEEQIHQIRIENPNSLQDQSHALLKYWLERDGKHATDTNIVECLTKINRMDIVHLME [L63I]	0.07 ± 0.11
ERLAYIADHLGFSWTELARELDFTEEQIHQIRIENPNSLQDQSHALLKYWLERDGKHATDTNQVECLTKINRMDIVHLME [L63Q]	-0.885 ± 0.2
ERLAYIADHLGFSWTELARELDFTEEQIHQIRIENPNSLQDQSHALLKYWLERDGKHATDTNTVECLTKINRMDIVHLME [L63T]	-0.408 ± 0.1
ERLAYIADHLGFSWTELARELDFTEEQIHQIRIENPNSLQDQSHALLKYWLERDGKHATDTNKVECLTKINRMDIVHLME [L63K]	-0.677 ± 0.32
ERLAYIADHLGFSWTELARELDFTEEQIHQIRIENPNSLQDQSHALLKYWLERDGKHATDTNMVECLTKINRMDIVHLME [L63M]	0.022 ± 0.17
ERLAYIADHLGFSWTELARELDFTEEQIHQIRIENPNSLQDQSHALLKYWLERDGKHATDTNFVECLTKINRMDIVHLME [L63F]	-0.143 ± 0.12
ERLAYIADHLGFSWTELARELDFTEEQIHQIRIENPNSLQDQSHALLKYWLERDGKHATDTNWVECLTKINRMDIVHLME [L63W]	-0.205 ± 0.13
ERLAYIADHLGFSWTELARELDFTEEQIHQIRIENPNSLQDQSHALLKYWLERDGKHATDTNRVECLTKINRMDIVHLME [L63R]	-0.935 ± 0.087
ERLAYIADHLGFSWTELARELDFTEEQIHQIRIENPNSLQDQSHALLKYWLERDGKHATDTNVVECLTKINRMDIVHLME [L63V]	-0.091 ± 0.041
ERLAYIADHLGFSWTELARELDFTEEQIHQIRIENPNSLQDQSHALLKYWLERDGKHATDTNAVECLTKINRMDIVHLME [L63A]	-0.11 ± 0.049
ERLAYIADHLGFSWTELARELDFTEEQIHQIRIENPNSLQDQSHALLKYWLERDGKHATDTNYVECLTKINRMDIVHLME [L63Y]	-0.139 ± 0.15

Variant	abundance fitness
ERLAYIADHLGFSWTELARELDFTEEQIHQIRIENPNSLQDQSHALLKYWLERDGKHATDTNSVECLTKINRMDIVHLME [L63S]	-0.634 ± 0.081
ERLAYIADHLGFSWTELARELDFTEEQIHQIRIENPNSLQDQSHALLKYWLERDGKHATDTYLVECLTKINRMDIVHLME [N62Y]	-0.135 ± 0.12
ERLAYIADHLGFSWTELARELDFTEEQIHQIRIENPNSLQDQSHALLKYWLERDGKHATDTWLVECLTKINRMDIVHLME [N62W]	0.012 ± 0.12
ERLAYIADHLGFSWTELARELDFTEEQIHQIRIENPNSLQDQSHALLKYWLERDGKHATDTNLVEQLTKINRMDIVHLME [C66Q]	-0.018 ± 0.093
ERLAYIADHLGFSWTELARELDFTEEQIHQIRIENPNSLQDQSHALLKYWLERDGKHATDTNLVEELTKINRMDIVHLME [C66E]	0.091 ± 0.12
ERLAYIADHLGFSWTELARELDFTEEQIHQIRIENPNSLQDQSHALLKYWLERDGKHATDTNLVEHLTKINRMDIVHLME [C66H]	0.009 ± 0.2
ERLAYIADHLGFSWTELARELDFTEEQIHQIRIENPNSLQDQSHALLKYWLERDGKHATDTNLVERLTKINRMDIVHLME [C66R]	0.001 ± 0.045
ERLAYIADHLGFSWTELARELDFTEEQIHQIRIENPNSLQDQSHALLKYWLERDGKHATDTNLVENLTKINRMDIVHLME [C66N]	-0.092 ± 0.17
ERLAYIADHLGFSWTELARELDFTEEQIHQIRIENPNSLQDQSHALLKYWLERDGKHATDTNLVELLTKINRMDIVHLME [C66L]	-0.126 ± 0.061
ERLAYIADHLGFSWTELARELDFTEEQIHQIRIENPNSLQDQSHALLKYWLERDGKHATDTNLVEALTKINRMDIVHLME [C66A]	-0.016 ± 0.059
ERLAYIADHLGFSWTELARELDFTEEQIHQIRIENPNSLQDQSHALLKYWLERDGKHATDTNLVEMLTKINRMDIVHLME [C66M]	0.009 ± 0.099
ERLAYIADHLGFSWTELARELDFTEEQIHQIRIENPNSLQDQSHALLKYWLERDGKHATDTNLVEFLTKINRMDIVHLME [C66F]	-0.035 ± 0.1
ERLAYIADHLGFSWTELARELDFTEEQIHQIRIENPNSLQDQSHALLKYWLERDGKHATDTNLVEKLTKINRMDIVHLME [C66K]	0.014 ± 0.1
ERLAYIADHLGFSWTELARELDFTEEQIHQIRIENPNSLQDQSHALLKYWLERDGKHATDTNLVEPLTKINRMDIVHLME [C66P]	0.065 ± 0.056
ERLAYIADHLGFSWTELARELDFTEEQIHQIRIENPNSLQDQSHALLKYWLERDGKHATDTNLVEILTKINRMDIVHLME [C66I]	-0.143 ± 0.082
ERLAYIADHLGFSWTELARELDFTEEQIHQIRIENPNSLQDQSHALLKYWLERDGKHATDTNLVEGLTKINRMDIVHLME [C66G]	-0.045 ± 0.042
ERLAYIADHLGFSWTELARELDFTEEQIHQIRIENPNSLQDQSHALLKYWLERDGKHATDTNLVEDLTKINRMDIVHLME [C66D]	-0.363 ± 0.15
